Source: patent publication US20220340682A1 (Sanofi, published 2022)
Where a chain is given by its changes, count along the chain named.

T1: hCEACAM5 NA1B1, human CEACAM5 N-A1-B1 domain (35-320) (human, UniProt P06731 35-320)
T1 construct: Followed by 6 amino acid His-Tag; also called hCEACAM5 N-ter-A1-B1
T1 sequence: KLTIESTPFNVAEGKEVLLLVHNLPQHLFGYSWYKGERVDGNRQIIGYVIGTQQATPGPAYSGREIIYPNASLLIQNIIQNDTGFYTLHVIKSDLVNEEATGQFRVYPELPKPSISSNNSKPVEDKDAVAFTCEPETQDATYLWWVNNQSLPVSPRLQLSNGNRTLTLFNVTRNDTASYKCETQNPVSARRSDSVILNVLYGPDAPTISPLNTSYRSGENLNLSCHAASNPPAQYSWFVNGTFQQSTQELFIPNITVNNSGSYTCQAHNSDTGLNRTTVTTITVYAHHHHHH

T2: CEACAM5 A3B3, human CEACAM5 A3-B3 domain (499-685) (human, UniProt P06731 499-685)
T2 construct: Followed by 6 amino acid His-Tag; also called hCEACAM5 A3-B3; human A3B3 domain
T2 sequence: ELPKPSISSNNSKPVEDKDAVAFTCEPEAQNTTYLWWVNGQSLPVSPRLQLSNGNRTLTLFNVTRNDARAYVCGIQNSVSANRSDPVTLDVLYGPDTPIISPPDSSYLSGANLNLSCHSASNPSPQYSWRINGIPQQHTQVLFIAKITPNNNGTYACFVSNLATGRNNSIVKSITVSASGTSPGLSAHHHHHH

T3: CEACAM5 A2B2, human CEACAM5 A2-B2 domain (321-498) (human, UniProt P06731 321-498)
T3 construct: Followed by 6 amino acid His-Tag; also called hCEACAM5-A2-B2
T3 sequence: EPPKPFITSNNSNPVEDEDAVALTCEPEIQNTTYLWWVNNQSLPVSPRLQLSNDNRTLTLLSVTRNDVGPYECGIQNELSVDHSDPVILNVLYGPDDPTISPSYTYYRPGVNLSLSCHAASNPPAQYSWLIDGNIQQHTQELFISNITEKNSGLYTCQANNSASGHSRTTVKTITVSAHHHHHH

T4: hCEACAM5, human CEACAM5 ECD (35-685) (human, UniProt P06731 35-685)
T4 construct: produced in HEK293; also called human CEACAM5 protein; human CEACAM5 extracellular domain
T4 sequence: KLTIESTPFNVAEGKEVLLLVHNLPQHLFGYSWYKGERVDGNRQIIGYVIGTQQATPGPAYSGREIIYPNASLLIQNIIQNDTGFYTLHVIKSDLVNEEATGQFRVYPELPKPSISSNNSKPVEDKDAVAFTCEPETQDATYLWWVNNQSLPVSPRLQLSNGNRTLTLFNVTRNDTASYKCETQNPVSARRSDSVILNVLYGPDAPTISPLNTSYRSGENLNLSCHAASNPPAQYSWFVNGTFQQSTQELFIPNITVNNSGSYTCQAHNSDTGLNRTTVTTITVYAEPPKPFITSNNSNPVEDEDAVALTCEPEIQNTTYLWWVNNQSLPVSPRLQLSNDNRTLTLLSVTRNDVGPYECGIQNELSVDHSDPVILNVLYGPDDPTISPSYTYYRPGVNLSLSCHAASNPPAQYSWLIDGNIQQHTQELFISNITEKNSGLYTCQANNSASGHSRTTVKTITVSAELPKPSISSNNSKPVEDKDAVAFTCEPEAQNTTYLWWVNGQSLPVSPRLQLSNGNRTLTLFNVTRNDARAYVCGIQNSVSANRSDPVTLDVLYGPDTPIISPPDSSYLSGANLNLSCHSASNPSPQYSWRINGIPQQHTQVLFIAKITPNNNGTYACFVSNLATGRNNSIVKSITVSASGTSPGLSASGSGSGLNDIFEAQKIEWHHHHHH

B1: huMAb2-3 (antibody, human IgG1, kappa, V domains shown)
VH: EVQLQESGPGLVKPGGSLSLSCAASGFVFSSYDMSWVRQTPERGLEWVAYISSGGGITYAPSTVKGRFTVSRDNAKNTLYLQMNSLTSEDTAVYYCAAHYFGSSGPFAYWGQGTLVTVSS
VL: DIQMTQSPASLSASVGDRVTITCRASENIFSYLAWYQQKPGKSPKLLVYNTRTLAEGVPSRFSGSGSGTDFSLTISSLQPEDFATYYCQHHYGTPFTFGSGTKLEIKR
notes: Humanized MAb2, human IgG1 / Ckappa; also called MAb2_VL1cVH1a-IgG1
B2: huMAb2-4 (antibody, human IgG1, kappa, V domains shown)
VH: B1 VH with G44R, A60F, V93I, S120A
VL: B1 VL with R18T, D70Q, A84G, T85S
notes: Humanized MAb2, human IgG1 / Ckappa; also called MAb2_VL1d VH1-IgG1; MAb2_VL1dVH1-IgG1
B3: chMAb2 (antibody, human IgG1, kappa, V domains shown)
VH: EVQLQESGGVLVKPGGSLKLSCAASGFVFSSYDMSWVRQTPEKRLEWVAYISSGGGITYFPDTVQGRFTVSRDNAKNTLYLQMNSLKSEDTAIYYCAAHYFGSSGPFAYWGQGTLVTVSA
VL: B1 VL with D17E, R18T, P40Q, K45Q, R52K, D70Q, T74K, S76N, A84G, T85S
notes: Chimeric, human IgG1, Ck isotype; also called MAb2-IgG1; chimeric MAb2
B4: huMAb2-1 (antibody, V domains shown)
VH: B1 VH with G44R, A60F, V93I, S120A
VL: DIQMTQSPASLSASVGDTVTITCRASENIFSYLAWYQQKPGKSPKLLVYNTKTLAEGVPSRFSGSGSGTQFSLTISSLQPEDFGSYYCQHHYGTPFTFGSGTKLEIK
notes: Humanized MAb2 (VL1 + VH1) fused to human IgG1 and human Ckappa constant domains; also called MAb2_VL1VH1-IgG1; MAb2VL1VH1-IgG1
B5: huMAb2-2 (antibody, V domains shown)
VH: B1 VH
VL: B4 VL with T18R, Q70D, G84A, S85T
notes: Humanized MAb2 (VL1a + VH1a) fused to human IgG1 and human Ckappa constant domains; also called MAb2_VL1aVH1a-IgG1; MA2_VL1aVH1a-IgG1

biological target: T1, hCEACAM5 NA1B1, human CEACAM5 N-A1-B1 …; test: ELISA on CEACAM5 domains

Binder	percentage of binding compared to full binding with human CEACAM5
B1	0.4%
B2	0.3%
B3	0.5%
B4	0.4%
B5	0.4%

biological target: T2, CEACAM5 A3B3, human CEACAM5 A3-B3 …; test: ELISA on CEACAM5 domains

Binder	percentage of binding compared to full binding with human CEACAM5
B1	100%
B2	100%
B3	100%
B4	100%
B5	100%

biological target: T3, CEACAM5 A2B2, human CEACAM5 A2-B2 …; test: ELISA on CEACAM5 domains

Binder	percentage of binding compared to full binding with human CEACAM5
B1	0.4%
B2	0.3%
B3	0.3%
B4	0.3%
B5	0.3%

biological target: T4, hCEACAM5, human CEACAM5 ECD (35-685); test: SPR (BIAcore 2000), mAb captured by anti-human Fc, antigen injected 1-500 nM
Protocol: The binding kinetics of humanized anti-CEACAM5_MAb2 variants, compared with chimeric MAb2, to recombinant human CEACAM5 (hCEACAM5) and cynomolgus monkey CEACAM5 (cCEACAM5) were determined by surface plasmon resonance assay using a BlAcore 2000 (BlAcore Inc., Uppsala, N.J.).
Briefly, a CM5 BlAcore biosensor chip was docked into the instrument and activated with 70 μL of 1:1 NHS/EDC at room temperature. A mouse anti-ahuman Fc IgG1 (BlAcore # BR-1008-39) (50 μg/mL in […] acetate buffer, pH5) were immobilized on the activated chips in all flow cells. The immobilization was carried out at a flow rate of 10 μL/min up to saturation. The chip was then blocked by injection of 70 μL of ethanolamine-HCl, pH8.5, followed by one wash with 3M MgCl2. To measure the binding of anti-CEACAM5 mAbs to the human CEACAM5 protein or cynomolgus CEACAM5 protein, antibodies were used at 1-5 μg/mL in BlAcore running buffer (HBS-EP). Antigens (human CEACAM5 or cynomolgus CEACAM5) were injected from 1 to 500 nM. Following completion of the injection phase, dissociation was monitored in a BlAcore running buffer at the same flow rate for 600 sec. The surface was regenerated between injections using 2×5 μL MgCl2 3M (2×30s). Individual sensorgrams were analyzed using BlAevaluation software.

Binder	Kd
B1	11.7 nM
B2	6.9 nM
B3	9.9 nM
B4	9.8 nM
B5	24.5 nM
